Source: US20170101454A1 (Novo Nordisk, published 2017)
Starred links: 1 amine or outer side, 2 acyl side, 3 side chain; linkers in the order of their positions; H or OH if unused. Non-standard residues stand in square brackets, D forms with d. Groups on a side chain read outwards from the residue. No end group written: not given here. *: point of attachment. C18 diacid = O=C(O)CCCCCCCCCCCCCCCCC(=O)*; γGlu = O=C(O)[C@H](CCC(=O)[*:2])N[*:1]; Ac4c = NC1(C(=O)O)CCC1; AEEA = NCCOCCOCC(=O)O; Aib = CC(C)(N)C(=O)O

B1: N^ε28-[(4S)-4-carboxy-4-[[(4S)-4-carboxy-4-[[2-[2-[2-[[2-[2-[2-[[(4S)-4-carboxy-4-[[(4S)-4-carboxy-4-(17-carboxyheptadecanoylamino)butanoyl]amino]butanoyl]amino … (peptide)
peptide: H[Ac4c]QGTFTSDLSRYLESRRAREFVQWLIK([γGlu-γGlu-AEEA-AEEA-γGlu-γGlu-C18 diacid])T-NH2
modifications: N-terminus assumed
SMILES: CC[C@H](C)[C@H](NC(=O)[C@H](CC(C)C)NC(=O)[C@H](Cc1c[nH]c2ccccc12)NC(=O)[C@H](CCC(N)=O)NC(=O)[C@@H](NC(=O)[C@H](Cc1ccccc1)NC(=O)[C@H](CCC(=O)O)NC(=O)[C@H](CCCNC(=N)N)NC(=O)[C@H](C)NC(=O)[C@H](CCCNC(=N)N)NC(=O)[C@H](CCCNC(=N)N)NC(=O)[C@H](CO)NC(=O)[C@H](CCC(=O)O)NC(=O)[C@H](CC(C)C)NC(=O)[C@H](Cc1ccc(O)cc1)NC(=O)[C@H](CCCNC(=N)N)NC(=O)[C@H](CO)NC(=O)[C@H](CC(C)C)NC(=O)[C@H](CC(=O)O)NC(=O)[C@H](CO)NC(=O)[C@@H](NC(=O)[C@H](Cc1ccccc1)NC(=O)[C@@H](NC(=O)CNC(=O)[C@H](CCC(N)=O)NC(=O)C1(NC(=O)[C@@H](N)Cc2c[nH]cn2)CCC1)[C@@H](C)O)[C@@H](C)O)C(C)C)C(=O)N[C@@H](CCCCNC(=O)CC[C@H](NC(=O)CC[C@H](NC(=O)COCCOCCNC(=O)COCCOCCNC(=O)CC[C@H](NC(=O)CC[C@H](NC(=O)CCCCCCCCCCCCCCCCC(=O)O)C(=O)O)C(=O)O)C(=O)O)C(=O)O)C(=O)N[C@H](C(N)=O)[C@@H](C)O
notes: also called Chem. 17; Chem 17
B2: N^ε29-[(4S)-4-carboxy-4-[[(4S)-4-carboxy-4-[[2-[2-[2-[[2-[2-[2-[[(4S)-4-carboxy-4-(17-carboxyheptadecanoylamino)butanoyl]amino]ethoxy]ethoxy]acetyl]amino]ethoxy … (peptide)
peptide: H[Aib]QGTFTSDLSKYLDARRARDFVQWLINK([γGlu-γGlu-AEEA-AEEA-γGlu-C18 diacid])-NH2
modifications: N-terminus assumed
SMILES: CC[C@H](C)[C@H](NC(=O)[C@H](CC(C)C)NC(=O)[C@H](Cc1c[nH]c2ccccc12)NC(=O)[C@H](CCC(N)=O)NC(=O)[C@@H](NC(=O)[C@H](Cc1ccccc1)NC(=O)[C@H](CC(=O)O)NC(=O)[C@H](CCCNC(=N)N)NC(=O)[C@H](C)NC(=O)[C@H](CCCNC(=N)N)NC(=O)[C@H](CCCNC(=N)N)NC(=O)[C@H](C)NC(=O)[C@H](CC(=O)O)NC(=O)[C@H](CC(C)C)NC(=O)[C@H](Cc1ccc(O)cc1)NC(=O)[C@H](CCCCN)NC(=O)[C@H](CO)NC(=O)[C@H](CC(C)C)NC(=O)[C@H](CC(=O)O)NC(=O)[C@H](CO)NC(=O)[C@@H](NC(=O)[C@H](Cc1ccccc1)NC(=O)[C@@H](NC(=O)CNC(=O)[C@H](CCC(N)=O)NC(=O)C(C)(C)NC(=O)[C@@H](N)Cc1c[nH]cn1)[C@@H](C)O)[C@@H](C)O)C(C)C)C(=O)N[C@@H](CC(N)=O)C(=O)N[C@@H](CCCCNC(=O)CC[C@H](NC(=O)CC[C@H](NC(=O)COCCOCCNC(=O)COCCOCCNC(=O)CC[C@H](NC(=O)CCCCCCCCCCCCCCCCC(=O)O)C(=O)O)C(=O)O)C(=O)O)C(N)=O
notes: also called Chem. 20; Chem 20

What was measured:
[1] = molecular target: T1, human GLP-1 receptor (human, UniProt P43220 24-463); test: displacement of [125I]-GLP-1-(7-36)NH2 from BHK membranes with human GLP-1R, SPA, no serum albumin
T1 construct: whole, on cells; reporter assay used whole cells

[2] = molecular target: T2, human glucagon receptor (human, UniProt P47871 26-477); test: cell-based or functional assay
T2 sequence (P47871 26-477): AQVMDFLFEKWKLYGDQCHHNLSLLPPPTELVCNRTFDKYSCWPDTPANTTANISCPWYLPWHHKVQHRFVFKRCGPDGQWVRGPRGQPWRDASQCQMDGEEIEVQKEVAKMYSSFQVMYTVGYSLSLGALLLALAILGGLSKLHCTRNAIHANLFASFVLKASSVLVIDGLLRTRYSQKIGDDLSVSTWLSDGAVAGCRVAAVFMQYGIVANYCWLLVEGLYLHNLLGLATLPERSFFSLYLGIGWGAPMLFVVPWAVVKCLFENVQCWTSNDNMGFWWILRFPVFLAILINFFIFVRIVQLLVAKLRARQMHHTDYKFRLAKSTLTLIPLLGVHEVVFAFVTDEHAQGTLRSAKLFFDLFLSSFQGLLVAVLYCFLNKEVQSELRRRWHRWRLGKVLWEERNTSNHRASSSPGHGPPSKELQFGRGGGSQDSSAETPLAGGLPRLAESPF

[3] = molecular target: T1, human GLP-1 receptor; test: cell-based or functional assay
[4] = molecular target: T2, human glucagon receptor; test: displacement of [125I]-glucagon from BHK membranes with human glucagon receptor, SPA, no serum albumin

Binder | IC50 [1] [nM] | GlucagonR EC50 (pM), [Assay (I)(b)], CRE luciferase reporter, BHK cells [2] [pM] | GLP-1R EC50 (pM) [Assay (I)(a)], CRE luciferase reporter, BHK cells [3] [pM] | IC50 [4] [nM]
B1 | 0.1 | 45 | 4 | 4.3
H[Aib]QGTFTSDLSRYLDARRARDFVQWLIK([γGlu-γGlu-γGlu-C18 diacid])T-NH2 (also called Chem. 14; Chem 14) | 0.1 | 9 | 2 | 6.4
B2 | 0.1 | 70 | 4 | 13.6
